From patent publication US20240092919A1 (Ablynx, published 2024)

T1: Cynomolgus TCR(AEA41865/AEA41866)-zipper protein (cynomolgus monkey)
T1 construct: also called cyTCR-zipper protein; cynoTCR zipper
T1 TCR alpha: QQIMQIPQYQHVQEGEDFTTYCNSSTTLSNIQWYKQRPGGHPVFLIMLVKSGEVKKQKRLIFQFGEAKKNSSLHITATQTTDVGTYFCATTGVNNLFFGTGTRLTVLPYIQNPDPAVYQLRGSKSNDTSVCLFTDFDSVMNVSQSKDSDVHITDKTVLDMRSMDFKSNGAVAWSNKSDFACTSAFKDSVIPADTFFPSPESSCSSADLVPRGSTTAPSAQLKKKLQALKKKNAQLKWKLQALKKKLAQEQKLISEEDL
T1 TCR beta: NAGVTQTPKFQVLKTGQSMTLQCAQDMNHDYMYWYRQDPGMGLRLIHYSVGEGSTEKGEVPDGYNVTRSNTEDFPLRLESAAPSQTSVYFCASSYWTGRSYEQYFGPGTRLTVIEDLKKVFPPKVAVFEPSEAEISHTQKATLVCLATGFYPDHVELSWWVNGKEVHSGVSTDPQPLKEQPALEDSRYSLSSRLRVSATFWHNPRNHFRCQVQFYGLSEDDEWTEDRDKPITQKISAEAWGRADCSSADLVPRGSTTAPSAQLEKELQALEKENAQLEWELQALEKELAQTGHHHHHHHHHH


Molecular target: T1, Cynomolgus …
Assay: SPR ProteOn off-rate screen
Description: Unique ISVD clones, i.e. clones with a unique sequence, were subsequently selected and screened to determine their off-rate. To this purpose, the ISVD containing periplasmic extracts were screened on huTCR-zipper and cyTCR-zipper protein by SPR on a ProteOn XPR36 instrument. The zipper proteins were immobilized on a GLC sensor chip (between 4300 and 5100RU) via amine coupling chemistry, using EDC/sulfo-NHS for activation of the carboxyl groups on the chip surface (running buffer: HBS-EP+, pH7.4). Periplasmic extracts were injected at 1/10 dilution for 2 min (at a flow rate of 45 μL/min) and dissociation was followed for 900 s. A pulse of 100 s of 3 M MgCl2 at 45 μL/min was used for regeneration. […] Processed sensorgrams were fitted with the Langmuir model (1:1 interaction) using ProteOn Manager 3.1.0 (Version 3.1.0.6) software.

koff [s⁻¹]	Binder
0.00383	T017000384 (VHH) VHH: EVQLVESGGGVVQPGGSLRLSCVASGAVHQLNFYGWYRQAPGKEREKVAHISIGDQTDYADSAKGRFTISRDESKNMVYLQMNSLRPEDTALYFCRAMSRIWPYDYWGQGTLVTVSS
0.00152	T017000403 (VHH) VHH: EVQLVESGGGVVQPGGSLRLSCVASWDVHQINFLGWYRQAPGKEREKVAHISIGDQTDYADSAKGRFTISRDESKNMVYLQMNSLRPEDTALYFCRAMSRIWPYDYWGQGTLVTVSS
0.000152	T017000379 (VHH) VHH: EVQLVESGGGVVQPGGSLRLSCVASWDVHQINFYGWYRQAPGKEREKVAHISIGDQTDYADSAKGRFTISRDESKNMVYLQMNSLRPEDTALYFCRAMSKIWPYDYWGQGTLVTVSS
0.00183	T017000401 (VHH) VHH: EVQLVESGGGVVQPGGSLRLSCVASGSVHKINFYGWYRQAPGKEREKVAHISIGDQTDYADSAKGRFTISRDESKNMVYLQMNSLRPEDTALYFCRAMSRIWPYDWWGQGTLVTVSS
0.00161	T017000391 (VHH) VHH: EVQLVESGGGVVQPGGSLRLSCVASGAVHKINFYGWYRQAPGKEREKVAHISIGDQTDYADSAKGRFTISRDESKNMVYLQMNSLRPEDTALYFCRAMSRIYPYDYWGQGTLVTVSS
0.00263	T017000398 (VHH) VHH: EVQLVESGGGVVQPGGSLRLSCVASYDVHQINFYGWYRQAPGKEREKVAHISIGDQTDYADSAKGRFTISRDESKNMVYLQMNSLRPEDTALYFCRAMSRIWPYDYWGQGTLVTVSS
0.00245	T017000397 (VHH) VHH: EVQLVESGGGVVQPGGSLRLSCVASGSVHQLNFLGWYRQAPGKEREKVAHISIGDQTDYADSAKGRFTISRDESKNMVYLQMNSLRPEDTALYFCRAMSRIWPYDYWGQGTLVTVSS
0.00206	T017000386 (VHH) VHH: EVQLVESGGGVVQPGGSLRLSCVASGSVHKLNFLGWYRQAPGKEREKVAHISIGDQTDYADSAKGRFTISRDESKNMVYLQMNSLRPEDTALYFCRAFSRIWPYDWWGQGTLVTVSS
0.00138	T017000406 (VHH) VHH: EVQLVESGGGVVQPGGSLRLSCVASGYVHQINFYGWYRQAPGKEREKVAHISIGDQTDYADSAKGRFTISRDESKNMVYLQMNSLRPEDTALYFCRAMSRIWPYDYWGQGTLVTVSS
0.00289	T017000382 (VHH) VHH: EVQLVESGGGVVQPGGSLRLSCVASGSVHKINFYGWYRQAPGKEREKVAHISIGDQTDYADSAKGRFTISRDESKNMVYLQMNSLRPEDTALYFCRAMSRIYPYDWWGQGTLVTVSS
0.00216	T017000381 (VHH) VHH: EVQLVESGGGVVQPGGSLRLSCVASGAVHKINFLGWYRQAPGKEREKVAHISIGDQTDYADSAKGRFTISRDESKNMVYLQMNSLRPEDTALYFCRAMSRIYPYDYWGQGTLVTVSS

Second part, the binder before the results:

Binder	koff [s⁻¹]
T017000354 (VHH) VHH: EVQLVESGGGVVQPGGSLRLSCVASGAVHKINFYGWYRQAPGKEREKVAHISIGDQTDYADSAKGRFTISRDESKNMVYLQMNSLRPEDTALYFCRAMSRIWPYDYWGQGTLVTVSS	0.000875
T017000363 (VHH) VHH: EVQLVESGGGVVQPGGSLRLSCVASGSVHKINFYGWYRQAPGKEREKVAHISIGDQTDYADSAKGRFTISRDESKNMVYLQMNSLRPEDTALYFCRAMSRIYPYDYWGQGTLVTVSS	0.00127
T017000369 (VHH) VHH: EVQLVESGGGVVQPGGSLRLSCVASGSVHKLNFYGWYRQAPGKEREKVAHISIGDQTDYADSAKGRFTISRDESKNMVYLQMNSLRPEDTALYFCRAMSRIWPYDWWGQGTLVTVSS	0.00155
T017000365 (VHH) VHH: EVQLVESGGGVVQPGGSLRLSCVASGAVHKLNFLGWYRQAPGKEREKVAHISIGDQTDYADSAKGRFTISRDESKNMVYLQMNSLRPEDTALYFCRAMSRIWPYDWWGQGTLVTVSS	0.00201
T017000356 (VHH) VHH: EVQLVESGGGVVQPGGSLRLSCVASGSVHKLNFYGWYRQAPGKEREKVAHISIGDQTDYADSAKGRFTISRDESKNMVYLQMNSLRPEDTALYFCRAMSRIWPYDYWGQGTLVTVSS	0.00089
T017000377 (VHH) VHH: EVQLVESGGGVVQPGGSLRLSCVASWDVHKINFYGWYRQAPGKEREKVAHISIGDQTDYADSAKGRFTISRDESKNMVYLQMNSLRPEDTALYFCRAMSRIYPYDYWGQGTLVTVSS	0.00214
T017000367 (VHH) VHH: EVQLVESGGGVVQPGGSLRLSCVASGYVHKINFLGWYRQAPGKEREKVAHISIGDQTDYADSAKGRFTISRDESKNMVYLQMNSLRPEDTALYFCRAMSRIWPYDYWGQGTLVTVSS	0.0011
T017000368 (VHH) VHH: EVQLVESGGGVVQPGGSLRLSCVASWDVHQINFYGWYRQAPGKEREKVAHISIGDQTDYADSAKGRFTISRDESKNMVYLQMNSLRPEDTALYFCRAMSRIYPYDYWGQGTLVTVSS	0.00129
T017000372 (VHH) VHH: EVQLVESGGGVVQPGGSLRLSCVASGYVHKINFYGWYRQAPGKEREKVAHISIGDQTDYADSAKGRFTISRDESKNMVYLQMNSLRPEDTALYFCRAMSRIYPYDYWGQGTLVTVSS	0.00122
T017000355 (VHH) VHH: EVQLVESGGGVVQPGGSLRLSCVASWDVHQLNFYGWYRQAPGKEREKVAHISIGDQTDYADSAKGRFTISRDESKNMVYLQMNSLRPEDTALYFCRAMSRIWPYDYWGQGTLVTVSS	0.00145
T017000361 (VHH) VHH: EVQLVESGGGVVQPGGSLRLSCVASGSVHKINFLGWYRQAPGKEREKVAHISIGDQTDYADSAKGRFTISRDESKNMVYLQMNSLRPEDTALYFCRAMSRIWPYDYWGQGTLVTVSS	0.000982
T017000374 (VHH) VHH: EVQLVESGGGVVQPGGSLRLSCVASYDVHQINFYGWYRQAPGKEREKVAHISIGDQTDYADSAKGRFTISRDESKNMVYLQMNSLRPEDTALYFCRAMSKIWPYDYWGQGTLVTVSS	0.000523
T017000378 (VHH) VHH: EVQLVESGGGVVQPGGSLRLSCVASWDVHKINFYGWYRQAPGKEREKVAHISIGDQTDYADSAKGRFTISRDESKNMVYLQMNSLRPEDTALYFCRAMSKIWPYDYWGQGTLVTVSS	0.000249
T017000360 (VHH) VHH: EVQLVESGGGVVQPGGSLRLSCVASWSVHQLNFYGWYRQAPGKEREKVAHISIGDQTDYADSAKGRFTISRDESKNMVYLQMNSLRPEDTALYFCRAMSKIYPYDWWGQGTLVTVSS	0.00243
T017000371 (VHH) VHH: EVQLVESGGGVVQPGGSLRLSCVASGYVHKINFYGWYRQAPGKEREKVAHISIGDQTDYADSAKGRFTISRDESKNMVYLQMNSLRPEDTALYFCRAMSRIWPYDYWGQGTLVTVSS	0.000612
T017000362 (VHH) VHH: EVQLVESGGGVVQPGGSLRLSCVASYDVHKINFYGWYRQAPGKEREKVAHISIGDQTDYADSAKGRFTISRDESKNMVYLQMNSLRPEDTALYFCRAMSKIWPYDYWGQGTLVTVSS	0.000577
T017000359 (VHH) VHH: EVQLVESGGGVVQPGGSLRLSCVASWDVHQINFYGWYRQAPGKEREKVAHISIGDQTDYADSAKGRFTISRDESKNMVYLQMNSLRPEDTALYFCRAFSKIYPYDYWGQGTLVTVSS	0.000401
T017000373 (VHH) VHH: EVQLVESGGGVVQPGGSLRLSCVASGSVHKLNFLGWYRQAPGKEREKVAHISIGDQTDYADSAKGRFTISRDESKNMVYLQMNSLRPEDTALYFCRAMSRIWPYDYWGQGTLVTVSS	0.000913
T017000364 (VHH) VHH: EVQLVESGGGVVQPGGSLRLSCVASGAVHQINFLGWYRQAPGKEREKVAHISIGDQTDYADSAKGRFTISRDESKNMVYLQMNSLRPEDTALYFCRAMSRIWPYDYWGQGTLVTVSS	0.0026
T017000370 (VHH) VHH: EVQLVESGGGVVQPGGSLRLSCVASGAVHQINFYGWYRQAPGKEREKVAHISIGDQTDYADSAKGRFTISRDESKNMVYLQMNSLRPEDTALYFCRAMSRIWPYDYWGQGTLVTVSS	0.00215
T017000357 (VHH) VHH: EVQLVESGGGVVQPGGSLRLSCVASGYVHQLNFYGWYRQAPGKEREKVAHISIGDQTDYADSAKGRFTISRDESKNMVYLQMNSLRPEDTALYFCRAMSRIWPYDYWGQGTLVTVSS	0.00251
